According to US20260049138A1 (Chugai, published 2026):

Biological target: T1, CD3ε homodimer protein (human, UniProt P07766 23-126, limits assumed)
T1 construct: also called CD3 (CD3ε)
Experiment: SPR Biacore T200, CD3ε homodimer on chip;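 also: Light-chain single-residue variant antibodies injected over amine-coupled CD3ε homodimer on a CM4 chip at 25 °C, bound amount divided by that of the GLS3000-containing antibody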

T1 sequence (P07766 23-126 limits assumed): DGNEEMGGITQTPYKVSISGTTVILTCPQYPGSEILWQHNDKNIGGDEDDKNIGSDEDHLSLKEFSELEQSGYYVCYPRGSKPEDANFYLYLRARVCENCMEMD

Row | Binder | ratio of amount bound vs unaltered GLS3000
1 | GLS3000 N30Q one-arm antibody (antibody, human IgG1, kappa, L234A L235A, N297A, name in Kabat numbering) heavy: QVQLVESGGGVVQPGRSLRLSCAASGFTFSNAWMHWVRQAPGKGLEWVAQIKAKSNNYATYYAESVKGRFTISRDDSKNSLYLQMNSLKTEDTAVYYCRYVHYGAYYGVDAWGQGTTVTVSSASTKGPSVFPLAPSSKSTSGGTAALGCLVKDYFPEPVTVSWNSGALTSGVHTFPAVLQSSGLYSLSSVVTVPSSSLGTQTYICNVNHKPSNTKVDKKVEPKSCDKTHTCPPCPAPEAAGGPSVFLFPPKPKDTLMISRTPEVTCVVVDVSHEDPEVKFNWYVDGVEVHNAKTKPREEQYASTYRVVSVLTVLHQDWLNGKEYKCKVSNKALPAPIEKTISKAKGQPREPQVYTLPPSRCELTKNQVSLSCAVKGFYPSDIAVEWESNGQPENNYKTTPPVLDSDGSFFLVSKLTVDKSRWQQGNVFSCSVMHEALHNHYTQKSLSLSPDYKDDDDK EPKSSDKTHTCPPCPAPELLGGPSVFLFPPKPKDTLMISRTPEVTCVVVDVSHEDPEVKFNWYVDGVEVHNAKTKPREEQYNSTYRVVSVLTVLHQDWLNGKEYKCKVSNKALPAPIEKTISKAKGQPREPQVCTLPPSRDELTKNQVSLWCLVKGFYPSDIAVEWESNGQPENNYKTTPPVLDSDGSFFLYSKLTVDKSRWQQGNVFSCSVMHEALHNRYTQKSLSLSP light: DIVMTQSPLSLPVTPGEPASISCRSSQSLVHSNRQTYLHWYQQKPGQAPRLLIYKVSNRFSGVPDRFSGSGSGTDFTLKISRVEAEDVGVYYCGQGTQVPYTFGQGTKLEIKRTVAAPSVFIFPPSDEQLKSGTASVVCLLNNFYPREAKVQWKVDNALQSGNSQESVTEQDSKDSTYSLSSTLTLSKADYEKHKVYACEVTHQGLSSPVTKSFNRGEC | 0.87
2 | GLS3000 N30R one-arm antibody (antibody, human IgG1, kappa, L234A L235A, N297A, name in Kabat numbering) heavy: QVQLVESGGGVVQPGRSLRLSCAASGFTFSNAWMHWVRQAPGKGLEWVAQIKAKSNNYATYYAESVKGRFTISRDDSKNSLYLQMNSLKTEDTAVYYCRYVHYGAYYGVDAWGQGTTVTVSSASTKGPSVFPLAPSSKSTSGGTAALGCLVKDYFPEPVTVSWNSGALTSGVHTFPAVLQSSGLYSLSSVVTVPSSSLGTQTYICNVNHKPSNTKVDKKVEPKSCDKTHTCPPCPAPEAAGGPSVFLFPPKPKDTLMISRTPEVTCVVVDVSHEDPEVKFNWYVDGVEVHNAKTKPREEQYASTYRVVSVLTVLHQDWLNGKEYKCKVSNKALPAPIEKTISKAKGQPREPQVYTLPPSRCELTKNQVSLSCAVKGFYPSDIAVEWESNGQPENNYKTTPPVLDSDGSFFLVSKLTVDKSRWQQGNVFSCSVMHEALHNHYTQKSLSLSPDYKDDDDK EPKSSDKTHTCPPCPAPELLGGPSVFLFPPKPKDTLMISRTPEVTCVVVDVSHEDPEVKFNWYVDGVEVHNAKTKPREEQYNSTYRVVSVLTVLHQDWLNGKEYKCKVSNKALPAPIEKTISKAKGQPREPQVCTLPPSRDELTKNQVSLWCLVKGFYPSDIAVEWESNGQPENNYKTTPPVLDSDGSFFLYSKLTVDKSRWQQGNVFSCSVMHEALHNRYTQKSLSLSP light: DIVMTQSPLSLPVTPGEPASISCRSSQSLVHSNRRTYLHWYQQKPGQAPRLLIYKVSNRFSGVPDRFSGSGSGTDFTLKISRVEAEDVGVYYCGQGTQVPYTFGQGTKLEIKRTVAAPSVFIFPPSDEQLKSGTASVVCLLNNFYPREAKVQWKVDNALQSGNSQESVTEQDSKDSTYSLSSTLTLSKADYEKHKVYACEVTHQGLSSPVTKSFNRGEC | 1.86
3 | GLS3000 N30S one-arm antibody (antibody, human IgG1, kappa, L234A L235A, N297A, name in Kabat numbering) heavy: QVQLVESGGGVVQPGRSLRLSCAASGFTFSNAWMHWVRQAPGKGLEWVAQIKAKSNNYATYYAESVKGRFTISRDDSKNSLYLQMNSLKTEDTAVYYCRYVHYGAYYGVDAWGQGTTVTVSSASTKGPSVFPLAPSSKSTSGGTAALGCLVKDYFPEPVTVSWNSGALTSGVHTFPAVLQSSGLYSLSSVVTVPSSSLGTQTYICNVNHKPSNTKVDKKVEPKSCDKTHTCPPCPAPEAAGGPSVFLFPPKPKDTLMISRTPEVTCVVVDVSHEDPEVKFNWYVDGVEVHNAKTKPREEQYASTYRVVSVLTVLHQDWLNGKEYKCKVSNKALPAPIEKTISKAKGQPREPQVYTLPPSRCELTKNQVSLSCAVKGFYPSDIAVEWESNGQPENNYKTTPPVLDSDGSFFLVSKLTVDKSRWQQGNVFSCSVMHEALHNHYTQKSLSLSPDYKDDDDK EPKSSDKTHTCPPCPAPELLGGPSVFLFPPKPKDTLMISRTPEVTCVVVDVSHEDPEVKFNWYVDGVEVHNAKTKPREEQYNSTYRVVSVLTVLHQDWLNGKEYKCKVSNKALPAPIEKTISKAKGQPREPQVCTLPPSRDELTKNQVSLWCLVKGFYPSDIAVEWESNGQPENNYKTTPPVLDSDGSFFLYSKLTVDKSRWQQGNVFSCSVMHEALHNRYTQKSLSLSP light: DIVMTQSPLSLPVTPGEPASISCRSSQSLVHSNRSTYLHWYQQKPGQAPRLLIYKVSNRFSGVPDRFSGSGSGTDFTLKISRVEAEDVGVYYCGQGTQVPYTFGQGTKLEIKRTVAAPSVFIFPPSDEQLKSGTASVVCLLNNFYPREAKVQWKVDNALQSGNSQESVTEQDSKDSTYSLSSTLTLSKADYEKHKVYACEVTHQGLSSPVTKSFNRGEC | 0.29
4 | GLS3000 N30T one-arm antibody (antibody, human IgG1, kappa, L234A L235A, N297A, name in Kabat numbering) heavy: QVQLVESGGGVVQPGRSLRLSCAASGFTFSNAWMHWVRQAPGKGLEWVAQIKAKSNNYATYYAESVKGRFTISRDDSKNSLYLQMNSLKTEDTAVYYCRYVHYGAYYGVDAWGQGTTVTVSSASTKGPSVFPLAPSSKSTSGGTAALGCLVKDYFPEPVTVSWNSGALTSGVHTFPAVLQSSGLYSLSSVVTVPSSSLGTQTYICNVNHKPSNTKVDKKVEPKSCDKTHTCPPCPAPEAAGGPSVFLFPPKPKDTLMISRTPEVTCVVVDVSHEDPEVKFNWYVDGVEVHNAKTKPREEQYASTYRVVSVLTVLHQDWLNGKEYKCKVSNKALPAPIEKTISKAKGQPREPQVYTLPPSRCELTKNQVSLSCAVKGFYPSDIAVEWESNGQPENNYKTTPPVLDSDGSFFLVSKLTVDKSRWQQGNVFSCSVMHEALHNHYTQKSLSLSPDYKDDDDK EPKSSDKTHTCPPCPAPELLGGPSVFLFPPKPKDTLMISRTPEVTCVVVDVSHEDPEVKFNWYVDGVEVHNAKTKPREEQYNSTYRVVSVLTVLHQDWLNGKEYKCKVSNKALPAPIEKTISKAKGQPREPQVCTLPPSRDELTKNQVSLWCLVKGFYPSDIAVEWESNGQPENNYKTTPPVLDSDGSFFLYSKLTVDKSRWQQGNVFSCSVMHEALHNRYTQKSLSLSP light: DIVMTQSPLSLPVTPGEPASISCRSSQSLVHSNRTTYLHWYQQKPGQAPRLLIYKVSNRFSGVPDRFSGSGSGTDFTLKISRVEAEDVGVYYCGQGTQVPYTFGQGTKLEIKRTVAAPSVFIFPPSDEQLKSGTASVVCLLNNFYPREAKVQWKVDNALQSGNSQESVTEQDSKDSTYSLSSTLTLSKADYEKHKVYACEVTHQGLSSPVTKSFNRGEC | 0.29
